This note sets out measurements from IntAct's records for PubMed 22045334.

The labels stand for the following.
B1: Mothers against decapentaplegic homolog 3 (Homo sapiens), P84022 (parent)
chain: MSSILPFTPPIVKRLLGWKKGEQNGQEEKWCEKAVKSLVKKLKKTGQLDELEKAITTQNVNTKCITIPRSLDGRLQVSHRKGLPHVIYCRLWRWPDLHSHHELRAMELCEFAFNMKKDEVCVNPYHYQRVETPVLPPVLVPRHTEIPAEFPPLDDYSHSIPENTNFPAGIEPQSNIPETPPPGYLSEDGETSDHQMNHSMDAGSPNLSPNPMSPAHNNLDLQPVTYCEPAFWCSISYYELNQRVGETFHASQPSMTVDGFTDPSNSERFCLGLLSNVNRNAAVELTRRHIGRGVRLYYIGGEVFAECLSDSAIFVQSPNCNQRYGWHPATVCKIPPGCNLKIFNNQEFAALLAQSVNQGFEAVYQLTRMCTIRMSFVKGWGAEYRRQTVTSTPCWIELHLNGPLQWLDKVLTQMGSPSIRCSSVS

In one assay the parent is B1. Particulars: with smuf2_human SMURF2, Q9HAU4.
As to T179V, the “effect of a mutation on the interaction” value is reported as “disrupting interaction”.
The same measure, in the same setting: as for T179V;S204A;S208A;S213A, the entry is “disrupting interaction”.

Variants of B1 are the subject of the next assay. Particulars: with ubc_human UBC.
Turning to K409R, the “effect of a mutation on the interaction” value is recorded as “decreasing interaction”.
In the case of K333R, the “effect of a mutation on the interaction” value is reported as “decreasing interaction”.
Same read-out and setting: as for K341R, the entry is “decreasing interaction”; as for K378R, “decreasing interaction”.

In another assay the parent is B1. As to conditions: with smad4_human SMAD4, Q13485.
Turning to K333R;K341R;K378R;K409R, the “effect of a mutation on the interaction” value is “decreasing interaction”.
The same measure, in the same setting: then K333R;K378R;K409R, with “decreasing interaction”.
